{"source": "paper PMC12175901", "key": {"[1]": {"molecular_target": "purified HIV-1 cores labelled with GFP-Vpr (HIV-1) (UniProt P12520)", "sequence (P12520 whole entry, looked up)": "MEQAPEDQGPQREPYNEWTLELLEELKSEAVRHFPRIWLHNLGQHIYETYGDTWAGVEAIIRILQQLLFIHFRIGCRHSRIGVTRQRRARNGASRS", "test": "TIRF fluorescence intensity against a standard curve"}, "[2]": {"molecular_target": "full-length BicD2 (zz-TEV-Halo-hBicD2^FL-6×His) (human) (UniProt Q8TD16)", "sequence (Q8TD16 whole entry)": "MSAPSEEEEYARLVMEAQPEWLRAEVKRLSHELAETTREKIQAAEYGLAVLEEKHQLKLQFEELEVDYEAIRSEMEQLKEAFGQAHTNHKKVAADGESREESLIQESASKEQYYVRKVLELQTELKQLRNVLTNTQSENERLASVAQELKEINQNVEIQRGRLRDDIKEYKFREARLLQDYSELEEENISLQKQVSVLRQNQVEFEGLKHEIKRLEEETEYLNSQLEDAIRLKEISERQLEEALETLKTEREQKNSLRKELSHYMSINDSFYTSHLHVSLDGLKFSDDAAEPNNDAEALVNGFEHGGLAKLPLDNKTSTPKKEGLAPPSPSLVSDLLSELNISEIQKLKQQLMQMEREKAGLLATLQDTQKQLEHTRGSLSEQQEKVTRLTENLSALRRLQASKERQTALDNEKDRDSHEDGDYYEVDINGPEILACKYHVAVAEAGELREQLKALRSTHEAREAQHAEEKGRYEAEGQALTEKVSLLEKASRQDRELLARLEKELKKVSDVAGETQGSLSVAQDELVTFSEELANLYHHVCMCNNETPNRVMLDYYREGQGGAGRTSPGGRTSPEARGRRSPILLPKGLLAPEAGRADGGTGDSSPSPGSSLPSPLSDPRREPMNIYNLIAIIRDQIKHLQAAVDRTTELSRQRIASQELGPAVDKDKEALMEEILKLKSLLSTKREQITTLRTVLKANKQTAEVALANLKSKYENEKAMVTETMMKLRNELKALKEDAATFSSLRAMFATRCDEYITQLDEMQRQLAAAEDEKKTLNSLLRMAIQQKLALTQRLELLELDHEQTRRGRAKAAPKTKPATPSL", "test": "TIRF microtubule recruitment assay; Nup358^min-zip labeled at 488 nm, full-length hBicD2, dynein and dynactin (1:1:2:2), 10 nM dynein; with all, or without dynein or BicD2; microtubules labeled with Alexa Fluor 647"}, "[3]": {"molecular_target": "HIV-1 capsid capsid (Human immunodeficiency virus 1) (UniProt O93182)", "sequence (O93182 133-363)": "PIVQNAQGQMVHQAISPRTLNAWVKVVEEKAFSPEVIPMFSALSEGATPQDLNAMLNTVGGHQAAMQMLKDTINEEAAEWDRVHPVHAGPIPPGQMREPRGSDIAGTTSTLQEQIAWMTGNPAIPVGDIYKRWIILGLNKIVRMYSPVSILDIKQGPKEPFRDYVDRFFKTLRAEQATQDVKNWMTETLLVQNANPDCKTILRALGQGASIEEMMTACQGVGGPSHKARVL", "settings": "cited from earlier work"}, "[4]": {"molecular_target": "recombinant human cytoplasmic dynein (full-length dynein complex) (human) (UniProt Q14204)", "test": "TIRF microtubule recruitment assay"}, "[5]": {"molecular_target": "recombinant human cytoplasmic dynein (full-length dynein complex) (human) (UniProt Q14204)", "test": "single-molecule TIRF colocalization"}}, "data": [{"substance": "recombinant human cytoplasmic dynein (full-length dynein complex) (from UniProt Q14204 1-4646; Q13409 1-638; O43237 1-492; P63172 1-113; P63167 1-89; Q9NP97 1-96)", "values": [{"measurement": "stoichiometry N (dynein dimers per HIV-1 core)", "setting": "[1]", "result": 11.6}]}, {"substance": "Nup358^min-zip [hNup358(2148 to 2240)-GCN4-SnapTag] (from UniProt P49792 2148-2240)", "values": [{"measurement": "fold loss of microtubule recruitment when BicD2 is left out", "setting": "[2]", "result": 15, "unit": "fold"}]}, {"substance": "CypA (from UniProt P62937)", "values": [{"measurement": "Kd", "setting": "[3]", "result": "> 13", "unit": "µM"}]}, {"substance": "purified HIV-1 cores labelled with GFP-Vpr (from UniProt P12520 1-96) (complex)", "values": [{"measurement": "fold increase of cores on microtubules (with dynein, dynactin and BicD2^FL)", "setting": "[4]", "result": 3.4, "unit": "fold"}, {"measurement": "percent of microtubule-bound cores colocalized with dynein", "setting": "[5]", "result": 75.6, "unit": "%"}]}]}
